Laboratory results: paper PMC4981545 (Cell reports, 2016)

Columns and labels:
Experiment in all cases: pull-down
[1] = biological target: GST-tagged HPV-16 E2 (16E2), immobilized (HPV-16, UniProt P03120 1-365)
[2] = biological target: GST-tagged HPV-11 E2 (11E2), immobilized (HPV-11, UniProt P04015 1-367)
[3] = biological target: T1, GST-tagged BPV-1 E2 (BE2), immobilized (bovine papillomavirus type 1 (BPV-1), UniProt P03122 1-410)
T1 sequence: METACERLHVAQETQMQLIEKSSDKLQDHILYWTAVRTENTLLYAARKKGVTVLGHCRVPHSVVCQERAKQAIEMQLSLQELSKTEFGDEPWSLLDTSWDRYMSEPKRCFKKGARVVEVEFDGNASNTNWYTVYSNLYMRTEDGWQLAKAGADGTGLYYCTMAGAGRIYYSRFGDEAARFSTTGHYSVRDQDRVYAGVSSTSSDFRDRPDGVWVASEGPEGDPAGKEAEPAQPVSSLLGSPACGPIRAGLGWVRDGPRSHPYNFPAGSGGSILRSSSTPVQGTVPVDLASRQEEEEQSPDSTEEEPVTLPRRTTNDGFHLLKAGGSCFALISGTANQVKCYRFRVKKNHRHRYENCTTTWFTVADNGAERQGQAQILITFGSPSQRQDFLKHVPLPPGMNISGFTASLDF

[4] = biological target: GST-tagged HPV-18 E2 (18E2), immobilized (HPV-18, UniProt P06790 1-365)
Sequence of GST-tagged HPV-18 E2 (18E2), immobilized (P06790 whole entry): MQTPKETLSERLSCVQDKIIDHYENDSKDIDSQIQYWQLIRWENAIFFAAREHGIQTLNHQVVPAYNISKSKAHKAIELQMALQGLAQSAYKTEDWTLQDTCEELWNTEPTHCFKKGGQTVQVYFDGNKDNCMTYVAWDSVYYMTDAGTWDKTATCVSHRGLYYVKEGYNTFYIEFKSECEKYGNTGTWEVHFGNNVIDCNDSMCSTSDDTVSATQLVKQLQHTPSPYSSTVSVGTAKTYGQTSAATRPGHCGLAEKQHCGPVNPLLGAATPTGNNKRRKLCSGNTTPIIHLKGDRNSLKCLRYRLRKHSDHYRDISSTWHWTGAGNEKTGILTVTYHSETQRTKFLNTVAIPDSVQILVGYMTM

[5] = biological target: Sf9-PDID of BRD4 with S498 substituted to alanine (human, UniProt O60885 287-530, S498 to alanine)
[6] = biological target: Sf9-PDID of BRD4 with S494 substituted to alanine (human, UniProt O60885 287-530, S494 to alanine)
[7] = biological target: Sf9-PDID of BRD4 with S488 substituted to alanine (human, UniProt O60885 287-530, S488 to alanine)
[8] = biological target: Sf9-PDID of BRD4 with S492 substituted to alanine (human, UniProt O60885 287-530, S492 to alanine)
[9] = biological target: Sf9-PDID of BRD4 with S499 substituted to alanine (human, UniProt O60885 287-530, S499 to alanine)

Measured: binding result

Sequence of GST-tagged HPV-16 E2 (16E2), immobilized (P03120 whole entry): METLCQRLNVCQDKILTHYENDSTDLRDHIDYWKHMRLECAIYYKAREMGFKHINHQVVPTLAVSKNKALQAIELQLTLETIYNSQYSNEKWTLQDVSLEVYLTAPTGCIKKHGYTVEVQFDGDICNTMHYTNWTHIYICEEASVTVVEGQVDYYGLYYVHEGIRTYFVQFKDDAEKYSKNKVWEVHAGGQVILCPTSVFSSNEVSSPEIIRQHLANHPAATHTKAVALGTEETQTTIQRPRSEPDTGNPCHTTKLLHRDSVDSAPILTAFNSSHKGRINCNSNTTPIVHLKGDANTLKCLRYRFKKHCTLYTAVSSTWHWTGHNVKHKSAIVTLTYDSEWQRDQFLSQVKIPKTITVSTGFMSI
Sequence of GST-tagged HPV-11 E2 (11E2), immobilized (P04015 whole entry): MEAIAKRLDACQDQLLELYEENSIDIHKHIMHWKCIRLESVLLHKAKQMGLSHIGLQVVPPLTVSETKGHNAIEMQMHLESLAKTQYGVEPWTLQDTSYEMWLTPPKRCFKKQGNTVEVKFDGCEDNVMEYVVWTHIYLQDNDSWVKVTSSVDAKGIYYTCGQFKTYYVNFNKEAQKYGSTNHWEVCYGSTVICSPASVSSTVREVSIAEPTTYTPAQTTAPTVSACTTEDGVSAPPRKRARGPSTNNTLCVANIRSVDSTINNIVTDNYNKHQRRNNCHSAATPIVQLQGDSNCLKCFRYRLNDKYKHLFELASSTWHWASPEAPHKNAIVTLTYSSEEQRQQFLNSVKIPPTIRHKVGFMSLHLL

B1: Sf9-BID of BRD4 (fragment 6) (domain or fragment, human, UniProt O60885 524-579, looked up)
chain: QLAALSQPQQNKPKKKEKDKKEKKKEKHKRKEEVEENKKSKAKEPPPKKTKKNNSS
binds: [1] | [2] | [3] | [4]

B2: Bac-expressed FLAG-tagged BID of BRD4 (aa 524–579, fragment c) (domain or fragment, human, UniProt O60885 524-579, looked up)
chain: B1 chain
binds: [1] | [2] | [3] | [4]

B3: GST-BID of BRD4 (domain or fragment, human, UniProt O60885 524-579, looked up)
chain: B1 chain
binds: [5] | [6] | [7] | [8] | [9]
